To fix the notation:
B1: Nuclear distribution protein nudE homolog 1 (Homo sapiens), Q9NXR1 (parent)
chain: MEDSGKTFSSEEEEANYWKDLAMTYKQRAENTQEELREFQEGSREYEAELETQLQQIETRNRDLLSENNRLRMELETIKEKFEVQHSEGYRQISALEDDLAQTKAIKDQLQKYIRELEQANDDLERAKRATIMSLEDFEQRLNQAIERNAFLESELDEKENLLESVQRLKDEARDLRQELAVQQKQEKPRTPMPSSVEAERTDTAVQATGSVPSTPIAHRGPSSSLNTPGSFRRGLDDSTGGTPLTPAARISALNIVGDLLRKVGALESKLASCRNLVYDQSPNRTGGPASGRSSKNRDGGERRPSSTSVPLGDKGLDTSCRWLSKSTTRSSSSC
partner: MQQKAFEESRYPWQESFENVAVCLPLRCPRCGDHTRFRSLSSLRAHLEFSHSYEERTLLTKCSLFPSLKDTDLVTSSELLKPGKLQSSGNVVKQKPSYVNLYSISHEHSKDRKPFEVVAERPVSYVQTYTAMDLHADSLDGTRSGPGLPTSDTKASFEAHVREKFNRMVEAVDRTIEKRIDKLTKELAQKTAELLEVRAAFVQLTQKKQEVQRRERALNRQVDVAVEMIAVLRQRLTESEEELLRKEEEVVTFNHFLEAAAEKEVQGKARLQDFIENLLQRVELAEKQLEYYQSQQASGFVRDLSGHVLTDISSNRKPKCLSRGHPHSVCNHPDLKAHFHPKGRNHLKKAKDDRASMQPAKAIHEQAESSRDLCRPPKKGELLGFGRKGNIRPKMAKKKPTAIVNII
B2: Nuclear distribution protein nudE homolog 1 (Homo sapiens), Q9NXR1 (parent)
chain: B1 chain

Variants of B1 are the subject of the first experiment. The note with it: with zn365_human ZNF365, Q70YC5.
For the variant MEDSGKTFSSEEEEANYWKDLAMTYKQRAENTQEELREFQEGSREYEAELETQLQQIETRNRDLLSENNRLRMELETIKEKFEVQHSEGYRQISALEDDLAQTKAIKDQLQKYIRELEQANDDLERAKRATIMSLEDFEQRLNQAIERNAFLESELDEKENLLESVQRLKDEARDLRQELAVQQKQEKPREPMPSSVEAERTDTAVQATGSVPSEPIAHRGPSSSLNEPGSFRRGLDDSTGGEPLEPAARISALNIVGDLLRKVGALESKLASCRNLVYDQEPNRTGGPASGRSSKNRDGGERRPSSTSVPLGDKGLDTSCRWLSKSTTRSSSSC [T191E;T215E;T228E;T243E;T246E;S282E], the “effect of a mutation on the interaction” value is listed as “decreasing interaction”.

Variants of B1 are the subject of another experiment. Particulars: with zn365_human ZNF365, Q70YC5. This is another data set of the same source.
On to MEDSGKTFSSEEEEANYWKDLAMTYKQRAENTQEELREFQEGSREYEAELETQLQQIETRNRDLLSENNRLRMELETIKEKFEVQHSEGYRQISALEDDLAQTKAIKDQLQKYIRELEQANDDLERAKRATIMSLEDFEQRLNQAIERNAFLESELDEKENLLESVQRLKDEARDLRQELAVQQKQEKPREPMPSSVEAERTDTAVQATGSVPSEPIAHRGPSSSLNEPGSFRRGLDDSTGGEPLEPAARISALNIVGDLLRKVGALESKLASCRNLVYDQEPNRTGGPASGRSSKNRDGGERRPSSTSVPLGDKGLDTSCRWLSKSTTRSSSSC [T191E;T215E;T228E;T243E;T246E;S282E], for which the “effect of a mutation on the interaction” value is reported as “decreasing interaction”.

Variants of B2 are the subject of the next experiment. Particulars: with cdk1_human CDK1, P06493.
cdk1_human CDK1, P06493, sequence (P06493 whole entry, looked up): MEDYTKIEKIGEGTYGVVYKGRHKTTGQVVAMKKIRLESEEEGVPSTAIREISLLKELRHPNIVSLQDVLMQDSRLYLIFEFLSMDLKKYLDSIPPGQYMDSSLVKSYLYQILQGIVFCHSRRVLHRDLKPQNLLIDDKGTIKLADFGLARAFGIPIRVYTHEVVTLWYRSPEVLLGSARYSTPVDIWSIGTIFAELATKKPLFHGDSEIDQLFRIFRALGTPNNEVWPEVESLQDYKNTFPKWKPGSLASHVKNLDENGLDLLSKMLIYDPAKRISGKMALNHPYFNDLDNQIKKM
Take MEDSGKTFSSEEEEANYWKDLAMTYKQRAENTQEELREFQEGSREYEAELETQLQQIETRNRDLLSENNRLRMELETIKEKFEVQHSEGYRQISALEDDLAQTKAIKDQLQKYIRELEQANDDLERAKRATIMSLEDFEQRLNQAIERNAFLESELDEKENLLESVQRLKDEARDLRQELAVQQKQEKPRVPMPSSVEAERTDTAVQATGSVPSVPIAHRGPSSSLNVPGSFRRGLDDSTGGVPLVPAARISALNIVGDLLRKVGALESKLASCRNLVYDQVPNRTGGPASGRSSKNRDGGERRPSSTSVPLGDKGLDTSCRWLSKSTTRSSSSC [T191V;T215V;T228V;T243V;T246V;S282V]: the “effect of a mutation on the interaction” value was “decreasing interaction”.
